Reference: article PMC5469197, “ANGUSTIFOLIA, a Plant Homolog of CtBP/BARS Localizes to Stress Granules and Regulates Their Formation” (Frontiers in Plant Science, 2017)

Columns and labels:
Assay in all cases: co-IP; LUMIER in HEK293TN cells: Prot-A fusion co-transfected with Renilla luciferase fusion (AN always the luciferase fusion with the interactors); luciferase activity before (input) and after pulldown; percentage pulldown = pulldown/input x 100; empty vectors as negative control; positive if more than two times the background
Details in all cases: partners not purified
[1] = target: T1, GLYCINE-RICH RNA-BINDING PROTEIN 2 (GRP2), Prot-A fusion (Arabidopsis thaliana, UniProt Q9SVM8 35-158)
T1 construct: CDS amplified from Col-0 cDNA; source: HEK293TN cells, transfected; not shown: Protein A (Staphylococcus aureus), N-terminal, kept
T1 sequence (looked up): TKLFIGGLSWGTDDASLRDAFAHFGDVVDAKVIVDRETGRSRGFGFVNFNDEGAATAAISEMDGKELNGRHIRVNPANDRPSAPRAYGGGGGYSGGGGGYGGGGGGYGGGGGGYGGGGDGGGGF

[2] = target: T2, POLY(A) BINDING PROTEIN 2 (PAB2), Prot-A fusion (Arabidopsis thaliana, UniProt P42731 1-629)
T2 construct: CDS amplified from Col-0 cDNA; also called AtPAB2; source: HEK293TN cells, transfected; not shown: Protein A (Staphylococcus aureus), N-terminal, kept
T2 sequence (looked up): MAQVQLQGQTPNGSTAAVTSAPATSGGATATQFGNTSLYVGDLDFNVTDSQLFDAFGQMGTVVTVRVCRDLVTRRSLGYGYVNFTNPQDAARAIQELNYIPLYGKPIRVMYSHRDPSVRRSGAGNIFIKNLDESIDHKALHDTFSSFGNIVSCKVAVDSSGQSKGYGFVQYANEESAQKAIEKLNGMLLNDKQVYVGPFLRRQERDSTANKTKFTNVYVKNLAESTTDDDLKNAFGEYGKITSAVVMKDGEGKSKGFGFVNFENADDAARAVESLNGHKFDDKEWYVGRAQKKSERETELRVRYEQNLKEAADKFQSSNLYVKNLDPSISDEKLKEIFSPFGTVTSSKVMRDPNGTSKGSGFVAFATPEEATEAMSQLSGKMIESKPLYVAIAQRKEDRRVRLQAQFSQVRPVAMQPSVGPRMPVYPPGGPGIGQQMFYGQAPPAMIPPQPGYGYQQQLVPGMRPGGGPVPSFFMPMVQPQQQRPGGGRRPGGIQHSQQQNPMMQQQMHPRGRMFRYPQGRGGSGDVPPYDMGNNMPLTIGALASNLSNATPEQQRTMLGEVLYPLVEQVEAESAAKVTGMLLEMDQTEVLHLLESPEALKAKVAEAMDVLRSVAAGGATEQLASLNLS

[3] = target: T3, TANDEM ZINC FINGER 3 (TZF3), Prot-A fusion (Arabidopsis thaliana, UniProt Q9M0G2 1-356)
T3 construct: Tandem zinc finger 3, Arabidopsis thaliana, AT4G29190; CDS amplified from Col-0 cDNA; source: HEK293TN cells, transfected; not shown: Protein A (Staphylococcus aureus), N-terminal, kept
T3 sequence (looked up): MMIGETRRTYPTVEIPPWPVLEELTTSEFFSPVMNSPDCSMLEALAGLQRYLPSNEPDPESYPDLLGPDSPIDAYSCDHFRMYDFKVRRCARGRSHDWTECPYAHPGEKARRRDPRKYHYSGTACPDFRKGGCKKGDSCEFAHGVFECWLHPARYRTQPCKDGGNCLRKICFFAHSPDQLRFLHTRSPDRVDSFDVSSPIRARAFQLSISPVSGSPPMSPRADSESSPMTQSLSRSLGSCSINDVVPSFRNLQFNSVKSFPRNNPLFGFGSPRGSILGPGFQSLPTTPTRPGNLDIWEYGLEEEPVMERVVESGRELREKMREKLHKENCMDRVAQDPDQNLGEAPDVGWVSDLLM

[4] = target: T4, …ONALLY CONTROLLED TUMOR PROTEIN (TCTP), Prot-A fusion (Arabidopsis thaliana, UniProt P31265 1-168)
T4 construct: Translationally controlled tumor protein, Arabidopsis thaliana, AT3G16640; CDS amplified from Col-0 cDNA; source: HEK293TN cells, transfected; not shown: Protein A (Staphylococcus aureus), N-terminal, kept
T4 sequence (looked up): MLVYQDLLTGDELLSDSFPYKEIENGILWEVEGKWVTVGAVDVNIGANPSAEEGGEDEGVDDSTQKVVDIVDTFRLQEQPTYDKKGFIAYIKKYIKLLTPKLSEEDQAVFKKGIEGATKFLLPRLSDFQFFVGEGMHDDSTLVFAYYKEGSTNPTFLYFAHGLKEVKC

[5] = target: T5, TANDEM CCCH ZINC FINGER (TZF) ATC3H14, Prot-A fusion (Arabidopsis thaliana, UniProt Q9C9N3 1-310)
T5 construct: Tandem CCCH zinc finger protein ATC3H14, Arabidopsis thaliana, AT1G66810; CDS amplified from Col-0 cDNA; source: HEK293TN cells, transfected; not shown: Protein A (Staphylococcus aureus), N-terminal, kept
T5 sequence (looked up): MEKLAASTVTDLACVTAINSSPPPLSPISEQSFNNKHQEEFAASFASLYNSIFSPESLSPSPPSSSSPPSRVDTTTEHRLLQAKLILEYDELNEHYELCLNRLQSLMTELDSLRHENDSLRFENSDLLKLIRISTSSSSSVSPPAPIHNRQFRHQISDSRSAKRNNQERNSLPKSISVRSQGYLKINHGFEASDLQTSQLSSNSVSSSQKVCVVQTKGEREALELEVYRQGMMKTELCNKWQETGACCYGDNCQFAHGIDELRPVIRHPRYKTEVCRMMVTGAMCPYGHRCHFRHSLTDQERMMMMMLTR

fold change from background [1]: 2.52 fold | percentage pulldown [1]: 0.24% | fold change from background [2]: 7.67 fold | percentage pulldown [2]: 0.71% | fold change from background [3]: 5.25 fold | percentage pulldown [3]: 0.5% | fold change from background [4]: 3.12 fold | percentage pulldown [4]: 0.28% | fold change from background [5]: 4.92 fold | percentage pulldown [5]: 0.47%
B1: AN, Renilla luciferase fusion (LUMIER) (natural protein, Arabidopsis thaliana, UniProt O23702 1-636, looked up)
chain: MSKIRSSATMPHRDQPSPASPHVVTLNCIEDCALEQDSLAGVAGVEYVPLSRIADGKIESATAVLLHSLAYLPRAAQRRLRPHQLILCLGSADRAVDSTLAADLGLRLVHVDTSRAEEIADTVMALILGLLRRTHLLSRHALSASGWLGSLQPLCRGMRRCRGMVLGIVGRSVSARYLASRSLAFKMSVLYFDVPEGDEERIRPSRFPRAARRMDTLNDLLAASDVISLHCALTNDTVQILNAECLQHIKPGAFLVNTGSCQLLDDCAVKQLLIDGTIAGCALDGAEGPQWMEAWVKEMPNVLILPRSADYSEEVWMEIREKAISILHSFFLDGVIPSNTVSDEEVEESEASEEEEQSPSKHEKLAIVESTSRQQGESTLTSTEIVRREASELKESLSPGQQHVSQNTAVKPEGRRSRSGKKAKKRHSQQKYMQKTDGSSGLNEESTSRRDDIAMSDTEEVLSSSSRCASPEDSRSRKTPLEVMQESSPNQLVMSSKKFIGKSSELLKDGYVVALYAKDLSGLHVSRQRTKNGGWFLDTLSNVSKRDPAAQFIIAYRNKDTVGLRSFAAGGKLLQINRRMEFVFASHSFDVWESWSLEGSLDECRLVNCRNSSAVLDVRVEILAMVGDDGITRWID
notes: ANGUSTIFOLIA (AN), Arabidopsis thaliana, AT1G01510; CDS amplified from Col-0 cDNA; in the dimerisation test the second copy must have been the N-terminal protein A fusion (surmised from the LUMIER format); also called wild-type AN; source: HEK293TN cells, transfected; not shown: Renilla reniformis luciferase, N-terminal, kept
